What all share (test): high-throughput RNA pulldown from lysate on Ni-NTA beads; HRP: 50 mM Tris pH 8, 150 mM NaCl, 1 mM beta-mercaptoethanol, 50 ug/ml BSA, 3 ug/ml yeast RNA, 0.5% heparin; ITC and FP: Tris pH 8, 200 mM KCl, 5% glycerol; MST: 50 mM Tris pH 8, 200 mM NaCl, 1 mM DTT, BSA, heparin, 0.05% Tween 20
Common to all, as to conditions: tags: N-terminal His-eGFP

Data set [1] concerns the target T1, GFP-9S library array, motif 4 ND N98A;D124I (synthetic construct, N98A;D124I).
T1 chain: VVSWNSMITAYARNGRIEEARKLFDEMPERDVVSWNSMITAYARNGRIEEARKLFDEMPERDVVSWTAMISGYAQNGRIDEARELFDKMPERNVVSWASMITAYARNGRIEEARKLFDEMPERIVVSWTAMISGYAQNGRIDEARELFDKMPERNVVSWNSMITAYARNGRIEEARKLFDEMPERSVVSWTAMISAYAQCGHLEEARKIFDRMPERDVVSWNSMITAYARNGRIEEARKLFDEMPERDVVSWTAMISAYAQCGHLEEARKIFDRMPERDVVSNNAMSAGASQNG

The target of data set [2] is T2, GFP-9S library array, motif 4 ND N98D;D124W (synthetic construct, N98D;D124W).
T2 chain: T1 chain with A98D, I124W

Data set [3] has as its target T3, GFP-9S library array, motif 4 ND N98Y;D124E (synthetic construct, N98Y;D124E).
T3 chain: T1 chain with A98Y, I124E

The target of data set [4] is T4, GFP-9S library array, motif 4 ND N98F;D124H (synthetic construct, N98F;D124H).
T4 chain: T1 chain with A98F, I124H

The target of data set [5] is T5, GFP-9S library array, motif 4 ND N98G;D124A (synthetic construct, N98G;D124A).
T5 chain: T1 chain with A98G, I124A

Results on four molecules are retold here after publication PMC8809517, “Cofactor-independent RNA editing by a synthetic S-type PPR protein”.

Positions count from the first letter of the chain named.

On to AUUAUACGUGA (ssRNA) [IR-rpoA-U], for which the Kd in data set [1] (label: 5' IRDye 800CW) was 249 nM; in data set [2] (label: 5' IRDye 800CW), 202 nM; in data set [3] (label: 5' IRDye 800CW), 286 nM; in data set [4] (label: 5' IRDye 800CW), 138 nM; in data set [5] (label: 5' IRDye 800CW), 175 nM.
AUUAAACGUGA (ssRNA) [IR-rpoA-A]: the dissociation constant Kd was determined as 203 nM in data set [1] (label: 5' IRDye 800CW); 572 nM in data set [2] (label: 5' IRDye 800CW); 488 nM in data set [3] (label: 5' IRDye 800CW); 188 nM in data set [4] (label: 5' IRDye 800CW); 133 nM in data set [5] (label: 5' IRDye 800CW).
As for AUUACACGUGA (ssRNA) [Cy5-rpoA], the Kd in data set [1] (label: 5' Cy5) was 103 nM; in data set [2] (label: 5' Cy5), 134 nM; in data set [3] (label: 5' Cy5), 128 nM; in data set [4] (label: 5' Cy5), 73.4 nM; in data set [5] (label: 5' Cy5), 124 nM.
In the case of AUUAGACGUGA (ssRNA) [Cy5-rpoA-G], the Kd came to 107 nM in data set [1] (label: 5' Cy5); 178 nM in data set [2] (label: 5' Cy5); 169 nM in data set [3] (label: 5' Cy5); 84.9 nM in data set [4] (label: 5' Cy5); 101 nM in data set [5] (label: 5' Cy5).

The term Kd denotes a measure of binding affinity in units of concentration. A lower Kd goes with tighter binding.
